Literature values, collected in publication PMC9966187.

Key:
[1] = target: C-(IELFQAR) peptide
[2] = target: C-(IEELQAR) peptide

**Q.** Which Kd [1] does the source give for E-selectin (from UniProt P16581) here?
**A.** 16 µM

**Q.** What about the Kd [2] of the same substance?
**A.** 35 µM
